# Experimental data taken from the RNAGym collection of RNA variant scans (doi:10.7554/elife.80360).
# B1: Hairpin Ribozyme (parent)
# chain: GUCCUCUUUCACGUGCGCGUGAAAGAGAGAAGUGAACCAGAGAAACACACGUUGUGGUAUAUUACCUGGUA
# Variants of: B1
# Assay: self-cleavage, relative activity (ratio to wild type); higher = more cleavage; co-transcriptional
row,Variant,self-cleavage
1,GUCCUCUUUCACGUGCGCGUGAAAGAGAGAAGUGAUCCAGAGAAUCACACGUUGUGGUAUAUUACCUGGUA,0.057
2,GUCCUCUUUCACGUGCGCGUGAAAGAGAGAAGUGAUCCAGAGAAACGCACGUUGUGGUAUAUUACCUGGUA,0.172
3,GUCCUCUUUCACGUGCGCGUGAAAGAGAGAAGUGAUCCAGAGAAACUCACGUUGUGGUAUAUUACCUGGUA,0.141
4,GUCCUCUUUCACGUGCGCGUGAAAGAGAGAAGUGAUCCAGAGAAACACCCGUUGUGGUAUAUUACCUGGUA,0.214
5,GUCCUCUUUCACGUGCGCGUGAAAGAGAGAAGUGAUCCAGAGAAACACACGUUGUGGUCUAUUACCUGGUA,0.228
6,GUCCUCUUUCACGUGCGCGUGAAAGAGAGAAGUGAUCCAGAGAAACACACGUUGUGGUAUAUUACCUGGUC,0.959
7,GUCCUCUUUCACGUGCGCGUGAAAGAGAGAAGUGAUCAAGAGAAACACACGUUGUGGUAUAUUACCUGGUA,0.0871
8,GUCCUCUUUCACGUGCGCGUGAAAGAGAGAAGUGAUCUAGAGAAACACACGUUGUGGUAUAUUACCUGGUA,0.112
9,GUCCUCUUUCACGUGCGCGUGAAAGAGAGAAGUGAUCCAGAGAAAAACACGUUGUGGUAUAUUACCUGGUA,0.0951
10,GUCCUCUUUCACGUGCGCGUGAAAGAGAGAAGUGAUCCAGAGAAAGACACGUUGUGGUAUAUUACCUGGUA,0.0439
11,GUCCUCUUUCACGUGCGCGUGAAAGAGAGAAGUGAUCCAGAGAAACAGACGUUGUGGUAUAUUACCUGGUA,0.182
12,GUCCUCUUUCACGUGCGCGUGAAAGAGAGAAGUGAUCCAGAGAAACACAGGUUGUGGUAUAUUACCUGGUA,0.0987
13,GUCCUCUUUCACGUGCGCGUGAAAGAGAGAAGUGAUCCAGAGAAACACAUGUUGUGGUAUAUUACCUGGUA,0.125
14,GUCCUCUUUCACGUGCGCGUGAAAGAGAGAAGUGAUCCAGAGAAACACACGUUGUGGUAUAUUAUCUGGUA,0.113
15,GUCCUCUUUCACGUGCGCGUGAAAGAGAGAAGUGAUCCAGAGAAACACACGUUGUGGUAUAUUACAUGGUA,0.114
16,GUCCUCUUUCACGUGCGCGUGAAAGAGAGAAGUGAUCCAAAGAAACACACGUUGUGGUAUAUUACCUGGUA,0.296
17,GUCCUCUUUCACGUGCGCGUGAAAGAGAGAAGUGAUCCAGAUAAACACACGUUGUGGUAUAUUACCUGGUA,0.173
18,GUCCUCUUUCACGUGCGCGUGAAAGAGAGAAGUGAUCCAGAGAAACACACAUUGUGGUAUAUUACCUGGUA,0.508
19,GUCCUCUUUCACGUGCGCGUGAAAGAGAGAAGUGAUCCAGAGAAACACACGUUGUAGUAUAUUACCUGGUA,0.0631

row,Variant,self-cleavage
1,GUCCUCUUUCACGUGCGCGUGAAAGAGAGAAGUGAUCCAGAGAAACACACGUUGUCGUAUAUUACCUGGUA,0.131
2,GUCCUCUUUCACGUGCGCGUGAAAGAGAGAAGUGAUCCAGAGAAACACACGAUGUGGUAUAUUACCUGGUA,0.303
3,GUCCUCUUUCACGUGCGCGUGAAAGAGAGAAGUGAUCCAGAGAAACACACGCUGUGGUAUAUUACCUGGUA,0.765
4,GUCCUCUUUCACGUGCGCGUGAAAGAGAGAAGUGAUCCAGAGAAACACACGGUGUGGUAUAUUACCUGGUA,0.466
5,GUCCUCUUUCACGUGCGCGUGAAAGAGAGAAGUGAUCCAGAGAAACACACGUAGUGGUAUAUUACCUGGUA,0.464
6,GUCCUCUUUCACGUGCGCGUGAAAGAGAGAAGUGAUCCAGAGAAACACACGUUGAGGUAUAUUACCUGGUA,0.161
7,GUCCUCUUUCACGUGCGCGUGAAAGAGAGAAGUGAUCCAGAGAAACACACGUUGUGGAAUAUUACCUGGUA,0.386
8,GUCCUCUUUCACGUGCGCGUGAAAGAGAGAAGUGAUCCAGAGAAACACACGUUGUGGUAAAUUACCUGGUA,0.487
9,GUCCUCUUUCACGUGCGCGUGAAAGAGAGAAGUGAUCCAGAGAAACACACGUUGUGGUAUAUUACCCGGUA,0.133
10,GUCCUCUUUCACGUGCGCGUGAAAGAGAGAAGUGAAACAGAGAAACACACGUUGUGGUAUAUUACCUGGUA,0.345
11,GUCCUCUUUCACGUGCGCGUGAAAGAGAGAAGUGAAACUGAGAAACACACGUUGUGGUAUAUUACCUGGUA,0.0999
12,GUCCUCUUUCACGUGCGCGUGAAAGAGAGAAGUGAAACAGGGAAACACACGUUGUGGUAUAUUACCUGGUA,0.339
13,GUCCUCUUUCACGUGCGCGUGAAAGAGAGAAGUGAAACAGAGAAGCACACGUUGUGGUAUAUUACCUGGUA,0.0956
14,GUCCUCUUUCACGUGCGCGUGAAAGAGAGAAGUGAAACAGAGAAACGCACGUUGUGGUAUAUUACCUGGUA,0.0917
15,GUCCUCUUUCACGUGCGCGUGAAAGAGAGAAGUGAAACAGAGAAACACCCGUUGUGGUAUAUUACCUGGUA,0.0162
16,GUCCUCUUUCACGUGCGCGUGAAAGAGAGAAGUGAAACAGAGAAACACGCGUUGUGGUAUAUUACCUGGUA,0.325
17,GUCCUCUUUCACGUGCGCGUGAAAGAGAGAAGUGAAACAGAGAAACACACGUUGUGGUAUGUUACCUGGUA,0.207
18,GUCCUCUUUCACGUGCGCGUGAAAGAGAGAAGUGAAACAGAGAAACACACGUUGUGGUAUAUUCCCUGGUA,0.144
19,GUCCUCUUUCACGUGCGCGUGAAAGAGAGAAGUGAAACAGAGAAACACACGUUGUGGUAUAUUACCUGGUC,0.526
